# Test results: patent publication US20220023399A1, “BLOOD COMPONENT POTENTIATION OF LYTIC PROTEIN ANTI-BACTERIAL ACTIVITY AND METHODS AND USES THEREOF” (priority 2017, published 2022)
# “And” between values parts separate entries of the source, which are not always exact repeats. Equal entries are not always repeated.
# B1: PlySs2 (CF-301): antistaphylococcal lysin from a Streptococcus suis prophage; N-terminal CHAP domain, C-terminal SH3-type binding domain; SEQ ID NO:3 (protein, listed as Streptococcus suis)
# chain: MTTVNEALNNVRAQVGSGVSVGNGECYALASWYERMISPDATVGLGAGVGWVSGAIGDTISAKNIGSSYNWQANGWTVSTSGPFKAGQIVTLGATPGNPYGHVVIVEAVDGDRLTILEQNYGGKRYPVRNYYSAASYRQQVVHYITPPGTVAQSAPNLAGSRSYRETGTMTVTVDALNVRRAPNTSGEIVAVYKRGESFDYDTVIIDVNGYVWVSYIGGSGKRNYVATGATKDGKRFGNAWGTFK
# How the values were obtained:
# Format in all cases: cell-based
# S. aureus strain MW2 = test: MIC by broth microdilution in human blood matrices and animal sera; conditions: for PlySs2/CF-301 MIC: different lots
# Description: FIG. 5 provides PlySs2 (CF-301) MIC distribution for S. aureus MW2 in different human blood matrices. […] Each sample is described in Supplementary Table 1. The MICs are plotted on the x axis, and the numbers of patient samples with particular MICs are plotted on the y axis.
# To understand whether variation in the sources of human blood-derived matrices may impact activity, PlySs2 (CF-301) MICs were determined using an array of 62 different pooled and individual human donor samples of whole blood, serum and plasma from different commercial sources with variations in age, sex, blood type, and type of anticoagulant used. […] Histograms showing MIC frequencies for each of the different matrices indicate that activity in whole blood and serum is equivalent, while activity in plasma differs by ˜1-log 2 dilution (FIG. 5). Overall, the enhancer effect was not impacted by variations in the age, sex, and blood type of individual or pooled donors or by the use of sodium citrate or sodium heparin as anticoagulants (TABLE 3). The effect was also observed in complement-inactivate media, complement preserved media, and was equivalent in at least 3 different matched sets of human blood, serum and plasma fractions, while delipidated serum was not equivalent.
# The impact of sample variation on PlySs2 (CF-301) activity in the serum of different animal species was also examined.
# [1] = system: S. aureus CAIRD 456 (MRSA); test: Checkerboard assay, additional MRSA strains; conditions: paired agent not given
# [2] = system: S. aureus JMI 1280 (MRSA); test: Checkerboard assay, additional MRSA strains; conditions: paired agent not given
# [3] = human whole blood (n=13), serum (n=33) and plasma (n=15) samples
# [4] = medium head missing (human serum)
molecule,measurement,setting,value
B1,MIC,S. aureus strain MW2; AST medium,^$$MIC AST medium: 0.5 μg/mL
same,PlySs2/CF-301 MIC,S. aureus strain MW2; dog serum (undiluted),1 µg/mL and 0.5 µg/mL
same,MIC,"S. aureus strain MW2; human serum, delipidized, pooled lots",64
same,MIC90,S. aureus strain MW2; [3],1 µg/mL
same,MIC Range,S. aureus strain MW2; [3],0.5 to 2 µg/mL
same,PlySs2/CF-301 MIC,S. aureus strain MW2; mouse serum (undiluted),32 µg/mL and 64 µg/mL
same,PlySs2/CF-301 MIC,S. aureus strain MW2; rabbit serum (undiluted),1 µg/mL
same,PlySs2/CF-301 MIC,S. aureus strain MW2; rat serum (undiluted),8 µg/mL
same,ΣFICavg,[1]; CAMHB,0.75
same,ΣFICmin,[1]; CAMHB,0.5
same,ΣFICavg,[1]; [4],0.44
same,ΣFICmin,[1]; [4],0.38
same,ΣFICavg,[2]; CAMHB,0.57
same,ΣFICmin,[2]; CAMHB,0.5
same,ΣFICavg,[2]; [4],0.29
same,ΣFICmin,[2]; [4],0.25
